Measurements from the nanobody polyreactivity screen of Harvey et al. (2022).

Assay: yeast display, Sf9 membrane polyspecificity reagent, FACS + sequencing; frameworks hold sequencing errors
Outline: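 In a synthetic yeast display library (Saccharomyces cerevisiae BJ5465), nanobody expression was induced with galactose for 36–48 hours. FACS gates were set low and high (top ~1%) using anti-HA fluorescence for expression and streptavidin fluorescence for binding of the Sf9 membrane reagent. Each polyreactivity label is drawn from the gate of origin.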

Row | Sequence | polyreactivity (PSR sort gate)
1 | QVQLVESGGGLVQAGGSLRLSCAASGSTIYYNAMGWYRQAPGKERELVARISRSGGSTYADSVKGRFTISRDNAKNTVYLQMNSVKPEDTAVYYCNADAYGTPEFSSYAVRYDYWGQGTQVTVSS | low polyreactivity
2 | QVQLVESGGGLVQAGGSLRLSCAASGSIFWWNAMGGYRQAPGKERELVAAINWSTGRTYYADSVKGRFTISRDNAKNTVYLQMNSLKPEDTAVYYCAASFVGALGYDYWGQGTQVTVSS | low polyreactivity
3 | QVQLVESGGGLVQAGGSLRLSCAASGFIFVQNTMGWYRQAPGKERELVAAISRGTGRTYYADSVKGRFTISRDNAKNTVYLQMNSLKPDDTAVYYCNVVYPQRYRSREDDYWGQGTQVTVSS | high polyreactivity
4 | QVQLVESGGGLVQSGGSLRLTCAASGRTFPYYAMGWYRQAPGKERELVAAISRRGGSTYYADSVKGRFTISRDNAMNTVYLQMNSLKPEDTAVYYCAAAGGVSGGEYDYWGQGTQVTVSS | high polyreactivity
5 | QVQLVESGGGLVQAGGSLRISCAASGSTFSYYAMGWYRQAPGKERELVADISWSGGSTYYADSVKGRFTISRDNAKNTVYLQMNSQKPEDTAVFYCAARGYVRWYNRYDYWGQGTQVTVSS | low polyreactivity
6 | QVQLVESGGGLVQAGGSLRLSCAASGSTFYFNAMGWYIQAPGKERELVADINYSGTSTYYADSVKGRFTISRDNAKNTVYLQMNSLKPEDTAVYYCAKSLPSSNTSTSYDYWGQGTQVTVSS | low polyreactivity
7 | QFQLVESGGGLVQAGGSLRLSCAASGSIFRAYAMGRYRQATGKERELVADISRSGGSTYYADSVKGRFTISRDNAKNTVYLQMNSLTQEVTAVYYCAAVFYLYSNLYGEYDYWGQGTQVTVSS | low polyreactivity
8 | QVQLVESGGGLVQAGGSLRLSCAASGSIFRQYAMGWYRQAPGKERELVAAIRSGGSTYYADSVKGRFTISRDNAKNTVYLQMNSLKPEDTAVYYCATRYHWSGYYYWGQGTQVTVSS | high polyreactivity
9 | QVQLVESGGGLVQAGGSLRLSCAASGRTFWYYAMGWYRQAPGKEREFVAAISYSGDGTYYADSVKGRFTISRDNAKNTVYLQMNSLKPEDTAVYYCAAEWYDPTLPTAWSEYEYWGQGTQVTVSS | high polyreactivity
10 | QVQLVESGGGLVQAGGSLRLSCAASGNTFRPYAMGWYRQAPGKERELVARIRYGGGSTYYADSVKGRFTISRDNAKNTVYLQMNSLKPEDTAVYYCAVYRDQYRNFYYWGLGTQVTVSS | high polyreactivity
11 | QVQLVESGGGLVQAGGSLRLSCAASGRIFHPNAMGWYRRATGKERELVAAISRSGSTYYADSVKGRFTISRDNAKNTVYLQMNSLKPEDTAVYYCATQTWSGYSGTPRIYDYWGQGTQVTVSS | high polyreactivity
12 | QVQLVESGGGLVQAGGSLRLSCAASGPIFVYYARGWYREAPGKEREFVAAISASGGSTYYADSVKGRFTISRDTAKNTVYLQMNSLKPEDPAVYYCAADRLRNRPRGLREYYWGQGTQVTVSS | low polyreactivity
13 | QVQLVESGGGLVQAGGSLHLSCAASGFTFGRYAMGWFRQAPGKERELVAAISRRGGSTYYADSVKGRFTISRDNANNTVYLQMNSLKPEDTAVYYCNVDKYRIVGFHSPYDYWVQGTQVTVSS | high polyreactivity
14 | QLQLVESGGGLVQAGGSLRLICADSGRTFPSNTMGWYRQAPGKERELVAAITNSGGSTYYADSVKGRFTISRDNAKNTVYLQMNSLKPEDTAVYYCAKVVGAPYVEYDYWGQGTQVSVSS | low polyreactivity
15 | QVQLEESGGGLFQAGGSLRLICAASGRICDVNAMGWYRQAPGKERELVAAISWSGGITYYADSVKGRFTISRDNAKNTVYLQMNSLKPEDTAVYYCAADKYQGYTFYQGYPGGGGYWGQGTQVTVSS | low polyreactivity
16 | QVQIVESGGGLVQARGSLRLSCAASGRTFYGYALGWYRQAPGKERELVASIRSRTGSTYYADSVKGRFTISRDNAKNTVYLLMNILKPEDTAVYYCARPYYAKGFAFDYWGLGTQVTVSS | high polyreactivity
17 | QVQLVESGGGLVQAGGSLRLSCAASGSTLGYNVMGWYRQAPGKERELVAAISGDGSTNYADSVNGRFTMSRDNAKNTVYLQMNSLKPEDTAVYYCNAPFWGYRTSFSYPVVLRFDYWGQGTQVTVSS | low polyreactivity
18 | QVQLVESGGGLVQAGGSLRLSCAASVFIFGYYAMGWYRQAPGKERELVADISWSGVSTYYADSVKGRFTISRDNAKNTVYLQMNSLKPEDNAVYYCAVGYVLTGVFQARFDYWGQGTQVTVSS | high polyreactivity
19 | QVQLVESGGGLVQAGGSLRLSCAASGRIIFAYTMGWYRQAPGKERELVAAISSSGSTYYADSVKGRFTISRDNAKNTVYLQMNSLKPEDTAVYYLRVQRRAYRYDYWGQGTQVTVTS | high polyreactivity
20 | QVQLVESGGGLVQAGGSLRLSCAASGSIFFRYAMGWYRQATGKERELVARISWGGGRTYYADSVKGRFTISRDNAKNTVYLQMNSLKPEDTAVYYCNRAYWVNPGGFEYWGQGTQVTVSS | high polyreactivity
21 | QVQLVESGGGLVQAGGSLRISCAASGSPIWNYVMRWYRKAPGKVRDLVAAISIVGSTYYADSVKGRFTSSRDNAKNTVYFELNILKPEDTAVNYCNAGYFGGSNASKVRLSYDHWGQGTDVTVSS | low polyreactivity
22 | QVQLVESGGGLVQAGGSLRLSCAASGSTFGKYTMGWYRQAPGKERELVAAISWSGGNTYYADSVKGRFTISRDNAKNTVYLQMNSLKPEDTAVYYCAAEREAYNTWFDYWGQGTQVTVSS | high polyreactivity

Row | Sequence | polyreactivity (PSR sort gate)
23 | QVQLVESGGGLVQAGGSLRLSCAASGFTFGWYTMGWYRQAPGKEREFVAAISWSGTSTYYADSVKGRFTISRDNAKNTVYLQMNSLKAEDTAVYYCNKLRRGDMEYWGQGTQVTVSS | high polyreactivity
24 | QVQLVESGGGLVQAGGSLGLSCAASGSIFRGYAMGWYIQAPGKERELVAAITSSGGSTNYADSVKGRFTISRDNAKNTVYLQMNSLKPEDTAVYYCAAGVIREKYYIWSDYEYDYWGQGTQVNVSS | low polyreactivity
25 | QVQLVESGGGLVQAGGSLRLSCAASGNTFPLNAMGWYRQAPGKERELVAAISSSGRTYYADSVKGRFTISRDNAKNTVYLQMNSLKPEDTAVFYCNAKWRERGVRMDYWGQGTQVTVSS | high polyreactivity
26 | QVQLVESGGGLVQAGGSLRLSCAPSGFTLSTYAMGWYRQAPGKERELVAAISRSTDRTYYADSVKGRFTISRDNAKNTVYLQMNSLKPEDTAVYYCAAKSVYYLYRFYYWGQGSQVTVSS | high polyreactivity
27 | QVQLVESGGGLVQAGGSLRLSCAASGSIFVRNAMGWYRQAPGKERELVAAISWRGGSTYYADSVKGRFTISRDNAKNTVYLQMNSLKPEDTAGYYCAARRWSPRSGLGYGYWGQGTQVTVSS | high polyreactivity
28 | QVQLVESGGGLVQAGGSLRLSCAASGSTFYVYDMGWYRQAPGKERELVAAITRRGGSTYYADSVKGRFTISRDNAKNTVYLQMNSLKPVDTAVYYCAARTAYYPTHRYYWGQGTQVTVSS | high polyreactivity
29 | QVQLVESGVGLVQAGGSLRLSCAASGSIFGYNDMGWYRQAPGKERELVAVITSGGSTNYADSVKGRFTISRDNAKNTVYLQMNSLKPEDTAVYYCNAEGVFGDGRSGFYWYDYWGQGTQVTVSS | low polyreactivity
30 | QVQHVESVGGLVQAGGSLRLSCAASGRIFNYNSMGWYRLAPVKERELVAVITSVDSTNYADSVKGRFTISRDNAKNTVYLQMNSLKQEDTAVYYCASEYYSIRYGPHSIEVYCMEYWGQGTQVTVSS | low polyreactivity
31 | QVQLVESGGGLVQAGGSLRLSCAASGRILYSYTMGWYRQAPGKEREFVAAITRSGGGTYYADSVKGRFTISRDNAKNTVYLQMNSLKPEDTAVYYCAYYTYYLAYGYWGQGTQVTVSS | high polyreactivity
32 | QVQLVESGGGLVQAGGRLRLSCPASGSTFYYYGMGWYRQAHGKERELVAAINCSCGTTYYADSVKGRFTISRDNAKNTVYLQLNSLKPEDTAVYYCAAAFYIYGVEGDYWGQGTQVTVSS | low polyreactivity
33 | QVQLVESGGGLVQAGGSLRLSCASSGSTFYPNAMGWYRQAPGKERELVAAISRSGGSTYYADSVKGRFTISRDNAKNTVYLQMNSLKPEDTGVYYCAADGRSPSRYDYWGQGTQVTVSS | low polyreactivity
34 | QVQLVESGGGLVQAGGRLRLSCAASGFTFKLYAMGWYRQAPGKERELVASISRSGGSTFYADSVKGRFTISRDTAKNTGYLQMNSLKPEDTAVYYCATGWYYSPYNYWGQGTQVTVSS | high polyreactivity
35 | QVQLVASGGGLVQAGGSLRLSCAASGSIFSYYTMGWYSQAPGKERELVASISRSGGRTNYADSVKGRFTISRDNAKNTVYLQMNSLKPEDTAVYYCKTERWGPYPHKRYNYWGQGTQVTVSS | high polyreactivity
36 | QVQLVESGGGLVQAGGSLRLSCAASGRTFTSYPMGWYRQAPGKERELVAAISQGGGRTYYADSVKGRFTISRDNAKNTVYLQMNSLKPEDTAVYYCNTVSLSLRYDYWGQGTQVTVSS | high polyreactivity
37 | QVQLVESGGGLVQAGGSLRLSCDASGRIFYNYAMGWYRQEPGKERELVAAISSSGGRTYYADSVKGRFTISRDKAKNTVYLQMNSLKPEDTAVYYCAADFHDASRPYGSWGQGTQVTVSS | low polyreactivity
38 | QVQLQESGGGLVQAGGSLRLPCAASGNISDAGYMGWYRQAPGKQREFVAAIAAGSNTNYADSVKGSFTISRDNAKNTVYLQMNSLKPEDTAVIFFAVASYARVQYEYWGQGTQVTVNS | low polyreactivity
39 | QVQLVESGGGLVQAGGSLRLSCADSGLIFRHYAMGWYRQAPGKERELVASISYRGGSTYYADSVKGRFTISRDNPKNTVYLQMNSLKPEDTAVDYCAADTYYPTYWSVTYGYDYWGQGTQVTVSS | low polyreactivity
40 | QVQLVESGGGLVQAGGSLRLSCAASGRIFSSNAMGWYRQAPGKERELVASISSTGSTKYADSVKGRFTISRDKAKNTVYLQMNSLKQEDSAVYYCAAGRYLWHFTFDYWGQGTQVTVSS | low polyreactivity
41 | QVQLVESGVGLVQAGCSLRLSCAASGSTFVLNAMGWYLQAAGKERELVAAISRGGASTYSADSVKGRFTISRDYAKNTVYLQMNSLKPEDTAVYYCNASGYGPGVVIYLVVYDYWGQGTQVTVSS | low polyreactivity
42 | QVQLVESGGGLVQAGGSLRLSCAASGSTLAPYVKGWYIQAPGTERELVAVISTRTGRTYYADSVKGRFTISRDNAKNTVSLQMNSLKPEDTAVYYCAAAYGWSWYRYDYWGQGTQVTVSS | high polyreactivity
43 | QVQLVESGGGLVQAGGSLRLSCAASGRTFRSNAMGWYRQAPGKERELVATISRRGVSTYYADSVKGRFTISRDNAKNTVYLQMNSLKPEDTAVYYCTLNVGTTSRWSYDYWGQGTQVTVSS | high polyreactivity
